# Experimental data taken from the nanobody polyreactivity screen of Harvey et al. (2022).
# Assay: yeast display, Sf9 membrane polyspecificity reagent, FACS + sequencing; frameworks hold sequencing errors
# How it was run: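 Sorting gates, low and high (top ~1%), were placed on anti-HA fluorescence to track expression and on streptavidin fluorescence to track reagent binding. A clone's polyreactivity label is taken from the gate it came out of. The reagent was 10% biotinylated, detergent-solubilized Sf9 membrane, applied for 1 hour at 4 °C to galactose-induced yeast display cells.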
row,Sequence,polyreactivity (PSR sort gate)
1,QVQLVESGGGLVQAGGSLRLICAASGRTFRFYAMGWYRQAPGKERELVAAINYGGGNTYYADSVKGRFTISRDNAKNTVYLQMNSLKADDTAVYYCAAQYYYRARWFPYDYWGQGTQVTVSS,high polyreactivity
2,QVQLVESGGGLVHAGGSLRLSCAASGRIFTIYAMGWYRQAPGKERELVAAISDRGTRTYYADSVKGRFTISRDNAKNTVYLQMNSLKPEETAVYYCATDALYTYGYDYWGQGTQVTVSS,low polyreactivity
3,QVQLVESGGGLVQAGGSLRLICAASGRTFYPNAMGWYRPAPGKERELVAAINSGDSTSYADSVKGRFTIARDNAKNTVYLQMNRLKPEDTAVYYCAAAEWYQFFIYRYTYEYWGQGTQVTVSS,low polyreactivity
4,QVQLVESGGGLVQAGGSLRLSCAASVFIFGTNAMGWYRQAPGKERELVASISSTGGSTYYADSVKGRLTISRDNAKNTVYLQMNSLIPEDNAVSFCASDHYPEYIRYVPGVDYWGQGTQVTVSS,low polyreactivity
5,QVQLVESGGGLVQAGGSLRLRCAASGRTFRYYAMGWYRQAPGKERELVAVINYRGGSTYYADSVKGRFTISRDNEKNTVYLQMNSLKPEDTAVYYCAAQYIGWHLYWYDYWGQGTQVTVSS,low polyreactivity
6,QVQLVESGGGLVQAGGSLRLSCAASGRTFRYKAMGWYRQAPGKERELVAAITWNGGRTYYADSVKGRFTISRDNAKNTVYLQMNSLKPEDTAVYYCAAQGTRVDRYPKYDYWGQGTQVTVSS,high polyreactivity
7,QVQLVESGGGLVQAGGSLRLSCAASGSTFSYNAMGWYRQAPGKERELVAAITSTGRTYYADSVKGRFTISRDNAKNTVYLQMNSLKPEDTAVYYCNKRARSEQYSYKYGYYYWGQGTQVTVSS,high polyreactivity
8,QVQLVESGGGLVQAGGSLRLSCAASGFTFFLYTMGWYRQAPGKERELVATITSAGTTNYADSVKGRFTISRDNAKNTVYLQMHSLKPEDTAVDYCNADRWEYDYWGQGTQVTVSS,low polyreactivity
9,QVQLVESGGGLVKAGGSLLLSCAASGSTFRVNFMGWYRKSPGKERELVAAITTSGGSKYYADSVKGRFTITRDNAKNSVFLQMNSEKLDDTAVYFCNTTYPSGWGPETDYWGQGIQVTVSS,low polyreactivity
10,QVQLVESGGGLVQAGGSLRLSCAASGSTFYVYAMGWYRQAPGKERELVAAIDSGDSTNYADSVKGRFTISRDNAKNTVYLQMNSLNPEDTAVYYCAVGYWDSRYRYDWPNSDYWGQGTQVTVSS,low polyreactivity
11,QVQLVESVGGLVQAGGSLRLSCASSGYIFAYYGMGWYRQAPGNERELVAAISWSGGSTDYADSVKGRFTISRDNAKNTGYLQMNRLKPEDTAVYYCATRKYADRESDYWGQVTQVTVSS,high polyreactivity
12,QVQLEESGGGLVQAGGSLRLSCAASGRTFVPYVMGWYRQAPGKEMELVATINWSGGSTYYADSVKGRFTISRDNAKNTVYLQMNSLKPEDTADYYCAARYYSDWFYYLFRYDYWGQGTQVTVSS,low polyreactivity
13,QVQLVESGGGLVQAGGSLRLSCAASGRTFGRYAMGWYRQAPGKERELVAAITRGGSTNYADSVKGRFTISRDNAKNTVYLQMNSLKPEDTAVYYCAKSVRYRYDYWGQGTQVTVSS,high polyreactivity
14,QVQLVESGGGLVQAGGSLRLSCAASGLIFGYYAKGWNTQAPGKERELVADISSGGSSNYADSVKGRFTISRDNAKNTVYLQMMSLKPEVTAVYYCAARYSRWFGFWGQGTQVTVSS,high polyreactivity
15,QVHLVDSGGGLVQAGGPLRLTCPASGSTYRYTIGWYRQAPGKQRELVAAITGSAGRTYYADSVKGRFTISRDNAKNTVYLQMNSLKPEVTAVYYCNKVRPSKFWDYYYCGQGTQVTVSS,high polyreactivity
16,QVQLVESGGGLVQAGGSLSLSCAASGFIFRGNGMGWYRQAPGKERELVAAIDSTDSTNYADSVKGRFTISRDNAKNTVYLQMNSLKPEDTAVYYCAAGVSWYGPYDYLWFYAFDYWGQGTQVTVSS,low polyreactivity
17,QVQHVESGGGLVQAGGSLRLSCAAYGRTLDVNAMGWYRQAPGKERELVAAIDWGVGTTYYADSVKGRFTISRDNAKNTVYLQMNSLKPEDTAVYYCAVEVYYSVYGYPVQYYYWGQGTQVTVSS,high polyreactivity
18,QVQLVESGGGLVQAGGSLRLSCAASGGILRQNTMGWYRQAPGKETELVAAISSSGGRTYYADSVKGRFTISRDNAKNTVYLQMNSLKPEDTAVYYCARGYSWSVGYPRVHDMDYWGQGTQVTVSS,high polyreactivity
19,QVQLVESGGGLVQAGGSLPLSCAASGRIIDRYAMGWSRQATGKERDLVASISSGGSTYYADSVKGRFTISRDNAKNTVYLQMNSLKPEDTAVYYCNAEARSRRYRYDYWGQGTQVTVSS,high polyreactivity
20,QVQLVESGGGLVQAGGSLRLSCAASGRTFSRNAMGWYRQAPGKERELVAGISWRGTSTYYADSVKGRFTISRDNAKNTVYLQMNSLKPEYTAVYYCNRVYEYWSEYDYWGQGTQVTVSS,high polyreactivity
21,QVQLVESGGGLVQAGGSLRLSCAASGIIIPVYAMGWYRQAPGKERELVAAISSGGSTYYADSVKGRFTISRDNAKNTVYLQMNSLKPEDTAVFYCAAGYQKGYADPGFDYWGQGTQVTVSS,high polyreactivity
22,QVQLVESGGGLVQAGGSLRLSCAASGFIFNRYTMGWYRQAPGKERELVAAITGRGGSTYYADSVKGRFSISRDNAKNTVYLQMNSLKPEDTAVYYCAAAPAYRYASYTYGYDSWGQGTQVTVSS,high polyreactivity

row,Sequence,polyreactivity (PSR sort gate)
1,QVQLVESGGGLVQAGGSLRLSCAASGSTLYSYAMGWYRQAPGKERELVAAISIGDSTNYADSVKGRFTISRDNAKNTVYLQMNSLKPVDTAVYYCAADWDESYSYRRYRHYDYWGQGTQVSVSS,low polyreactivity
2,QDQLVESGGGLVQAGGSLRLSCAASGFIIQGNAMGGYRQAPRKERELVAAISSSVSTYYADSVKGRFTISRDNAKNTVYLQMNSLKPEDTAVYYCNSGFPLSLWLGDYWGQGTQVTVSS,low polyreactivity
3,QVHLVESGGGLVQAGGSLRLSCAASGYTFSRNAMGWYRQAPGKERELVASISSRGGSTRYADSVKGRFTISRDNAKNTVYLQMNSLKPEDTAVYYCAVRGLYSPFTYGYWGQGTQVTVSS,high polyreactivity
4,QVQLVESGGGLVQAGGSLRLSCAASGRIFGIYAMGWYRQAPGKESEFVAAISWRTGSTYYADSVKWRFTISRDNAKNTVYLQMNRLNPADTAVYYCAAESASKYGYWVQGTQVTVSS,high polyreactivity
5,QVQLVESGGALVQAGGSLRISCAASGFTFHKNAMGWYRQAPGKERELVAAITYRGGSTYYADSVKGRFTISRDNAKNTVYLQMNSLKPEDTSVYYCAAELRPYITYDGPRKKFYFWGQGTQVTVSS,high polyreactivity
6,QVQLVESGGGLVQAGGSLRLSCAASGSIFSYYDMGWYRQAPGKERELVAGISRGGSTNYADSVKGRFTISRDNAKNTVYLQMNSLKPEDTAVYYCNADQSSRTYPFRRSRRSWLYGYWGQGTQVTVSS,low polyreactivity
7,QVQLEESGGGLVQAGGSLRLSCAASGLNIAVYTMGWYRQAPGKERELVAAITRRSTRTYYADSVKGRFTISRDNALISVFLQMNSLKPEDTAVYYCAADRVSSGAAFEFWGQGTQVTVSS,low polyreactivity
8,QVQLVESGGGLVQAGGSLRLSCAASGRIFYRYDMGWYRQAPGKERELVAAISSGGNTNYADSVKGRFTISRDNAKNTVYLQMNCLKPEDTAVYYCAKRYRSYQGSSRQGNYGYWGQGTQVSVSS,high polyreactivity
9,QVQLVESGGGLVQAGGSLRLSCAASGFIYKYAMGWYRPAPGKERELVAAISQNGGSTRYADSVKGRFTISRDNAKNTVYLQMNSLKPEDTAVYYCNTGVARGYKYWGQGTQVTVSS,high polyreactivity
10,QVQLVESGGGLVQAGGSLRLSCAASGGIFWRYAMGWYRQAPGKERELVAAISSRGGSTYYADSVKGRFTISRDNAKNTVYLQMNSLKPEDTAVYYCAAAFLSRVQGYDSWGQGTQVTVSS,high polyreactivity
11,QVQLVESGGGLVQAGVILRLSCAASGRIFIPYAMGWYIQAPGKERELVAAISYRGGSTYYADSVKGRFTISRDNAKNTVYLQMNSLKPEDTAVYYCANYDYWGQGTQVTVSS,high polyreactivity
12,QVQLVESGGGLVQAGGSLRLSCAASGSTFGYYTKGWYRQAPGKERELVAAITWSGGSTYYADSVKGRFTISRDNAKNTVYLQMNSLKPEDTAVYYCAADDYWTPFGYWGQGTQVTVSS,low polyreactivity
13,QVQLVESGGGLVQAGGSLRLSCAASGSIFVYNAMGWYRQAPGKERELVAAISQRGGSTYYADSVKGRFTISRDNAKNTVYLQMNSLKPEDTADYYCAAGPGDSGDDYWGQGTQVTVSS,low polyreactivity
14,QVKIVESGGGLVQAGGSLRLSCAASGGIFNWYAMGWYRPAPGKERELVAAITQSGGSTYYADSVKGRFTISRDNAKNTEYLQMNSLKPEDTAVYYCNKDQEKFWTAFNTIGRAREYDYWGQGTQVTVSS,low polyreactivity
15,QVQLVESGGGLVQAGGSLRLSCAASGSTFDYYAMGWYRQAPGKERELVAAISWSGGSTYYADSVKGRFTISRDNEKNTVYLQMNSLKPEDTAVYYCAALYSYISGGYIYDYWGQGTQVTVSS,low polyreactivity
16,QVQLVESGGGLVQGGGTLRLSCAASGSILSRNTMGWYRQAPGKEREFVADISKGDSTYYADSVKGRFTISRDNAKNTGYLQMNILKPVDTAVYYCAVDSWRRAMWYYGRYGYWGQGTEVTVSS,low polyreactivity
17,QVQLVESGGGLVQAGGSLRLSCAASGRTFWYYAMGWYRQAPGKERELVAYADSVKGRFTISRDNAKNTVYLQMNSLIPEDTAVYYCAVGPVVWFSSSLYYTDYYYWGQGTQVTVSS,low polyreactivity
18,QVQLVESGGGLVQAGGSLRLSCAASGIIFFWNAMGWYRQAPGKERELVAAISSGGSTYADSVKGRFTISRDNAKNTVYLQMNSLKPEDTAVYYCAARFYHGYRPYSAIYGYGYWGQGTQVTVSS,low polyreactivity
19,QVQLVESGGGLVQAGGSLRLSCAASGSIFLVNDMGWYRQAPGKERELVAAISYSGDSTYYADSVKGRFTISRDNAKNTVYLQMNSLKPEDTAVYYCAADVFIISYVAAWHVRIDEFEWGQGTQVTVSS,low polyreactivity
20,QVQLVESGGGLVQAGGSLRLSCAASGFTFSWYAMGWYRQAPGKERELVAAITRSGGSTNYADSVKGRFTISRDNAKNTVYLQMNSLKPEDTAVYYCNAAGYRRSTWWYDYWGQGTQVTVSS,high polyreactivity
21,QVQLEESGGGLVQAGGSLRISCAASGLIFRTNAIGWYRQAPGKERELVAAISWSTGSTYYADSVKGRFTISRDNAKNTVYLQMNSLKPEDTAVYYCARTLRWTYRYGYWGQGTQVTVSS,high polyreactivity
